Measurements reported in patent US20180298070A1, “PEPTIDE COMPOUND” (Takeda Pharmaceutical Company Limited, published 2018).
Substitutions are numbered along the chain they refer to. Starred links: 1 amine or outer side, 2 acyl side, 3 side chain; linkers in the order of their positions; H or OH if unused. Non-standard residues stand in square brackets, D forms with d. Groups on a side chain read outwards from the residue. Primed or numbered codes have the meaning given here. No end group written: not given here. *: point of attachment. C20 diacid = O=C(O)CCCCCCCCCCCCCCCCCCC(=O)*; γGlu = O=C(O)[C@H](CCC(=O)[*:2])N[*:1]; NMeY = CN[C@@H](Cc1ccc(O)cc1)C(=O)O; αMeF = C[C@](N)(Cc1ccccc1)C(=O)O; Lauroyl = CCCCCCCCCCCC(=O)*; dIva = CC[C@@](C)(N)C(=O)O; Iva = CC[C@](C)(N)C(=O)O; PEG2′ = not defined here; PEG3′ = not defined here; Aib = CC(C)(N)C(=O)O

B1: Compound 221 (peptide)
peptide: Y[Aib]EGTFISDYSK([PEG2′-Lauroyl])ALDRIAQQS[αMeF]VNW[Iva]LAQRPSSGAPPPS
modifications: not fully specified (C-terminus); ends and bridges not checked
B2: Compound 223 (peptide)
peptide: Y[Aib]EGTFISDYSK([PEG(2)-Lauroyl])ALDRIHQQS[αMeF]VNW[Iva]LAQRPSSGAPPPS
modifications: not fully specified (C-terminus); ends and bridges not checked
B3: Compound 237 (peptide)
peptide: Y[Aib]EGTFISDYSIALDRK([PEG3′-PEG3′-γGlu-C20 diacid])HQQDFVNWLLAQRPSSGAPPPS
modifications: not fully specified (C-terminus); ends and bridges not checked
B4: Compound 240 (peptide)
peptide: Y[Aib]EGTFISDYSIALDRK([PEG(2)-Pal])HQ[Aib]NFVNW[Iva]LAQRPSSGAPPPS
modifications: not fully specified (C-terminus); ends and bridges not checked
B5: Compound 222 (peptide)
peptide: Y[Aib]EGTFISDYSK([PEG(2)-Lauroyl])ALDRIHQQSFVNW[Iva]LAQRPSSGAPPPS
modifications: not fully specified (C-terminus); ends and bridges not checked
B6: Compound 473 (peptide)
peptide: YXEGTXISDYSIXXDRXAQXNFVNWXLAQRPSSGAPPPSR
modifications: N-methyl on Tyr1 (Me-Tyr); Aib at 2, 13, 17, 20; Iva at 6, 26; Lys(Eda-GGGGG-) at 14; C-terminal NH2
B7: Compound 479 (peptide)
peptide: B6 peptide
modifications: N-methyl on Tyr1 (Me-Tyr); Aib at 2, 13, 17, 20; Iva at 6, 26; Lys(Oda-GGGGGG-) at 14; C-terminal NH2
B8: Compound 506 (peptide)
peptide: B6 peptide
modifications: N-methyl on Tyr1 (Me-Tyr); Aib at 2, 13, 17, 20; Iva at 6, 26; Lys(Hepda-GGGGGG-) at 14; C-terminal NH2
B9: Compound 415 (peptide)
peptide: YXEGTXISDYSIXXDRXAQXNFVNWXLAQR
modifications: N-methyl on Tyr1 (MeTyr); Aib at 2, 13, 17, 20; Iva at 6, 26; Lys(Oda-GGGGG-) at 14; C-terminal NH2
B10: Compound 435 (peptide)
peptide: YXEGTXISDYSIXXDRXAQXNFVNWXLAQRPSSGAPPPS
modifications: N-terminal acetyl (Ac-Tyr); Aib at 2, 13, 17, 20; Iva at 6, 26; Lys(Eda-GGGGG-) at 14; C-terminal NH2
B11: Compound 493 (peptide)
peptide: B10 peptide with X14L, A18H
modifications: N-methyl on Tyr1 (Me-Tyr); Aib at 2, 13, 20; Iva at 6, 26; Lys(Eda-GGGGG-) at 17; C-terminal NH2
B12: Compound 465 (peptide)
peptide: B10 peptide
modifications: N-methyl on Tyr1 (Me-Tyr); Aib at 2, 13, 17, 20; Iva at 6, 26; Lys(Hepda-GGGGG-) at 14; C-terminal NH2
B13: Compound 503 (peptide)
peptide: B10 peptide with X14L, A18H
modifications: N-methyl on Tyr1 (Me-Tyr); Aib at 2, 13, 20; Iva at 6, 26; Lys(Heda-GGGGGG-) at 17; C-terminal NH2
B14: Compound 495 (peptide)
peptide: B10 peptide with X14L
modifications: N-methyl on Tyr1 (Me-Tyr); Aib at 2, 13, 20; Iva at 6, 26; Lys(Hepda-GGGGGG-) at 17; C-terminal NH2
B15: Compound 457 (peptide)
peptide: B10 peptide
modifications: N-methyl on Tyr1 (Me-Tyr); Aib at 2, 13, 17, 20; Iva at 6, 26; Lys(Heda-GGGGGG-) at 14; C-terminal NH2
B16: Compound 441 (peptide)
peptide: B10 peptide
modifications: not fully specified; N-methyl on Tyr1 (MeTyr); Aib at 2, 13, 17, 20; Iva at 6, 26; Lys(Oda-GGGGG-) at 14; C-terminal OH
B17: Compound 475 (peptide)
peptide: B10 peptide with A18H
modifications: N-methyl on Tyr1 (Me-Tyr); Aib at 2, 13, 17, 20; Iva at 6, 26; Lys(Eda-GGGGG-) at 14; C-terminal NH2
B18: Compound 504 (peptide)
peptide: B10 peptide with X14L, A18H
modifications: N-methyl on Tyr1 (Me-Tyr); Aib at 2, 13, 20; Iva at 6, 26; Lys(Hepda-GGGGGG-) at 17; C-terminal NH2
B19: Compound 484 (peptide)
peptide: B10 peptide with A18H
modifications: N-methyl on Tyr1 (Me-Tyr); Aib at 2, 13, 17, 20; Iva at 6, 26; Lys(Oda-GGGGGG-) at 14; C-terminal NH2
B20: Compound 502 (peptide)
peptide: B10 peptide with X14L, A18H
modifications: N-methyl on Tyr1 (Me-Tyr); Aib at 2, 13, 20; Iva at 6, 26; Lys(Hepda-GGGGG-) at 17; C-terminal NH2
B21: Compound 494 (peptide)
peptide: B10 peptide with X14L
modifications: N-methyl on Tyr1 (Me-Tyr); Aib at 2, 13, 20; Iva at 6, 26; Lys(Heda-GGGGGG-) at 17; C-terminal NH2
B22: Compound 439 (peptide)
peptide: B10 peptide
modifications: N-methyl on Tyr1 (Me-Tyr); Aib at 2, 13, 17, 20; Iva at 6, 26; Lys(Oda-GGGGGG-) at 14; C-terminal NH2
B23: Compound 491 (peptide)
peptide: B10 peptide with X14L, A18H
modifications: N-methyl on Tyr1 (Me-Tyr); Aib at 2, 13, 20; Iva at 6, 26; Lys(Oda-GGGGG-) at 17; C-terminal NH2
B24: Compound 466 (peptide)
peptide: B10 peptide
modifications: N-methyl on Tyr1 (Me-Tyr); Aib at 2, 13, 17, 20; Iva at 6, 26; Lys(Hepda-GGGGGG-) at 14; C-terminal NH2
B25: Compound 445 (peptide)
peptide: B10 peptide
modifications: N-methyl on Tyr1 (Me-Tyr); Aib at 2, 13, 17, 20; Iva at 6, 26; Lys(Heda-GGGGG-) at 14; C-terminal NH2
B26: Compound 496 (peptide)
peptide: B10 peptide with X14L
modifications: N-methyl on Tyr1 (Me-Tyr); Aib at 2, 13, 20; Iva at 6, 26; Lys(Oda-GGGGGG-) at 17; C-terminal NH2
B27: Compound 492 (peptide)
peptide: B10 peptide with X14L, A18H
modifications: N-methyl on Tyr1 (Me-Tyr); Aib at 2, 13, 20; Iva at 6, 26; Lys(Oda-GGGGGG-) at 17; C-terminal NH2
B28: Compound 459 (peptide)
peptide: B10 peptide
modifications: N-methyl on Tyr1 (Me-Tyr); Aib at 2, 13, 17, 20; Iva at 6, 26; Lys(Hda-GGGGG-) at 14; C-terminal NH2
B29: Compound 68 (peptide)
peptide: [NMeY][Aib]EGTFISDYSIALDRIAQ[Aib]NFVNW[Iva]LAQRPSSGAPPPSR
modifications: not fully specified (C-terminus); ends and bridges not checked
B30: Compound 79 (peptide)
peptide: [NMeY][Aib]EGTFISDYSI[dIva]LDR[Aib]AQQDFVNWLLAQRPSSGAPPPSR
modifications: ends and bridges not checked
B31: Compound 232 (peptide)
peptide: Y[Aib]EGTFISDYSIALDRK([PEG(2)-dodec])HQQDFVNWLLAQRPSSGAPPPS
modifications: not fully specified (C-terminus); ends and bridges not checked
B32: Compound 71 (peptide)
peptide: [NMeY][Aib]EGTFISDYSIALDRIAQQS[αMeF]VNWLLAQRPSSGAPPPSR
modifications: not fully specified (C-terminus); ends and bridges not checked
B33: Compound 234 (peptide)
peptide: Y[Aib]EGTFISDYSIALDRK([PEG(2)-C20 diacid])HQQDFVNWLLAQRPSSGAPPPS
modifications: not fully specified (C-terminus); ends and bridges not checked
B34: Compound 72 (peptide)
peptide: [NMeY][Aib]EGTFISDYSIALDRIAQ[Aib]N[αMeF]VNWLLAQRPSSGAPPPSR
modifications: not fully specified (C-terminus); ends and bridges not checked
B35: Compound 92 (peptide)
peptide: [NMeY][Aib]EGTFISDYSI[dIva]LDRIAQ[Aib]NFVNW[Iva]LAQRPSSGAPPPSR
modifications: ends and bridges not checked
B36: Compound 238 (peptide)
peptide: Y[Aib]EGTFISDYSK([PEG3′-PEG3′-γGlu-C20 diacid])ALDRIHQQDFVNWLLAQRPSSGAPPPS
modifications: not fully specified (C-terminus); ends and bridges not checked

What was measured:
[1] = biological target: T1, human GIPR (human), P48546
T1 chain: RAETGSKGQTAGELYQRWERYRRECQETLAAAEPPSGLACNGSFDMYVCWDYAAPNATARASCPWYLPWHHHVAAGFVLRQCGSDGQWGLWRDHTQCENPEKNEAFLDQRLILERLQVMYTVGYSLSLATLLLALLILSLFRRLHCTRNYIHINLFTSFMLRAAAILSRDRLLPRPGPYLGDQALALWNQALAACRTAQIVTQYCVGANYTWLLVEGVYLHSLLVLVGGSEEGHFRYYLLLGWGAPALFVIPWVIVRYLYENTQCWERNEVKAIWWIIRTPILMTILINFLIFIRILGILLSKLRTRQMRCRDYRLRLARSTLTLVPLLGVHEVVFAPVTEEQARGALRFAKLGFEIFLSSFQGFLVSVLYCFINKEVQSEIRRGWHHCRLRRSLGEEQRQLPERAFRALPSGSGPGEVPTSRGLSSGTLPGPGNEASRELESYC

[2] = biological target: T2, human GLP-1R (human), P43220
T2 chain: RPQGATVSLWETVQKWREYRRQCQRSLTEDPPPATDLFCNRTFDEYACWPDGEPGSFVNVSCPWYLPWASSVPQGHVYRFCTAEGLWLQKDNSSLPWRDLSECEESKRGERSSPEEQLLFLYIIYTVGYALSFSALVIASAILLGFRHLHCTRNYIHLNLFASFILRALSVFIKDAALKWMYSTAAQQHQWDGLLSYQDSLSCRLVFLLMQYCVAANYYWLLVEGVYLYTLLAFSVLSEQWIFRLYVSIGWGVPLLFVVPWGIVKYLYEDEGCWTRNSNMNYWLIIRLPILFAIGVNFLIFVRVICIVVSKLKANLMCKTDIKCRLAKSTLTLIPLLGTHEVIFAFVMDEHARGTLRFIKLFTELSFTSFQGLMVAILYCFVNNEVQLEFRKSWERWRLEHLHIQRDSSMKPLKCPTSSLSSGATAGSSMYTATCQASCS

[3] = biological target: T1, human GIPR (human), P48546; test: [125I]GIP displacement, hGIPR VLP
[4] = biological target: human GLP-1R (human, UniProt P43220); test: cell-based or functional assay

Binder	Agonist activity (EC50, M) [1] [M]	Agonist activity (EC50, M) [2] [M]	IC50 [3] [nM]	Agonist activity (EC50, M) [4] [M]
B1	7.1e-12	> 1e-06	3	
B2	5.1e-12	> 1e-06	3	
B3	1.6e-10	> 1e-06	110	
B4	3e-12	5.8e-09	2.4	
B5	3.7e-12	> 1e-06	2.9	
B6				> 1e-06
B7				> 1e-06
B8				> 1e-06
B9				> 1e-06
B10				> 1e-06
B11				> 1e-06
B12				> 1e-06
B13				> 1e-06
B14				> 1e-06
B15				> 1e-06
B16				> 1e-06
B17				> 1e-06
B18				> 1e-06

Binder	Agonist activity (EC50, M) [1] [M]	Agonist activity (EC50, M) [2] [M]	IC50 [3] [nM]	Agonist activity (EC50, M) [4] [M]
B19				> 1e-06
B20				> 1e-06
B21				> 1e-06
B22				> 1e-06
B23				> 1e-06
B24				> 1e-06
B25				> 1e-06
B26				> 1e-06
B27				> 1e-06
B28				> 1e-06
B29	1.7e-12	3.5e-07	2.4	
B30	1.1e-12	> 1e-06	1.2	
B31	3.2e-12	> 1e-06	2.1	
B32	2.5e-12	> 1e-06	2.1	
B33	1.5e-10	> 1e-06	82	
B34	2.6e-12	2.3e-07	2.7	
B35	1.3e-12	> 1e-06	2.3	
B36	8.3e-11	> 1e-06	43	
